No end group written: not given here.

We go through 17 molecules from article PMC7305236.

In test [1] the target is atypical chemokine receptor ACKR3 (formerly CXCR7) (human) (UniProt P25106).
Test [2] addresses delta opioid receptor (DOR) (human) (UniProt P41143).
Test [3] deals with mu opioid receptor (MOR) (human) (UniProt P35372).
Test [4] concerns the target kappa opioid receptor (KOR) (human) (UniProt P41145).

atypical chemokine receptor ACKR3 (formerly CXCR7) (human), sequence (P25106 whole entry): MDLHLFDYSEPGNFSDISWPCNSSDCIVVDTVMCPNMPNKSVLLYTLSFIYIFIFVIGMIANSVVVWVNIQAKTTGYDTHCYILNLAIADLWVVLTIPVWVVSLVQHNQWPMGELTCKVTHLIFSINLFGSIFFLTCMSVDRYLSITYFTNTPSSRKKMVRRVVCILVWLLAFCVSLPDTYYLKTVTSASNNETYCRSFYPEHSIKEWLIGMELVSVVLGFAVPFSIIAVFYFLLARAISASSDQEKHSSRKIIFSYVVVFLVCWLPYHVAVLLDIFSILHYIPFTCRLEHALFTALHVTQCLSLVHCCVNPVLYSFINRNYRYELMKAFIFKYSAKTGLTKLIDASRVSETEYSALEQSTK

Turning to YGGAMRRV-NH2 [adrenorphin-derived peptide YGGAMRRV], the Supplementary Table 4: EC50 of β-arrestin-1 recruitment to ACKR3, U87 cells in test [1] came out at 10 µM.
As for YGGFMRAV-NH2 [adrenorphin-derived peptide YGGFMRAV], the Supplementary Table 4: EC50 of β-arrestin-1 recruitment to DOR, U87 cells in test [2] was 0.308 µM. In test [3], this molecule had a Supplementary Table 4: EC50 of β-arrestin-1 recruitment to MOR, U87 cells of 0.682 µM. The molecule further had a Supplementary Table 4: EC50 of β-arrestin-1 recruitment to KOR, U87 cells in test [4] of 1.25 µM.
In test [1], YGGLMRRV-NH2 [adrenorphin-derived peptide YGGLMRRV] had a Supplementary Table 4: EC50 of β-arrestin-1 recruitment to ACKR3, U87 cells of 10 µM.
In turn, LGGFMRRV-NH2 [adrenorphin-derived peptide LGGFMRRV] showed a Supplementary Table 4: EC50 of β-arrestin-1 recruitment to ACKR3, U87 cells in test [1] of 0.261 µM.
On to FGGFMRRV-NH2 [adrenorphin-derived peptide FGGFMRRV], for which the Supplementary Table 4: EC50 of β-arrestin-1 recruitment to ACKR3, U87 cells in test [1] was found to be 0.00933 µM.
YGGYMRRV-NH2 [adrenorphin-derived peptide YGGYMRRV]: the Supplementary Table 4: EC50 of β-arrestin-1 recruitment to ACKR3, U87 cells in test [1] was 5 µM.
In the case of YGGFMRRL-NH2 [adrenorphin-derived peptide YGGFMRRL], the Supplementary Table 4: EC50 of β-arrestin-1 recruitment to DOR, U87 cells in test [2] came out at 0.254 µM. For the same molecule, in test [3], the Supplementary Table 4: EC50 of β-arrestin-1 recruitment to MOR, U87 cells was 0.294 µM. For the same molecule, in test [1], the Supplementary Table 4: EC50 of β-arrestin-1 recruitment to ACKR3, U87 cells came to 0.153 µM. In test [4], this molecule came in with a Supplementary Table 4: EC50 of β-arrestin-1 recruitment to KOR, U87 cells of 0.0712 µM.
In test [1], YSGFMRRV-NH2 [adrenorphin-derived peptide YSGFMRRV] had a Supplementary Table 4: EC50 of β-arrestin-1 recruitment to ACKR3, U87 cells of 10 µM.
On to YRGFMRRV-NH2 [adrenorphin-derived peptide YRGFMRRV], for which the Supplementary Table 4: EC50 of β-arrestin-1 recruitment to ACKR3, U87 cells in test [1] was 5 µM.
On the same count and under the same terms, to AGGFMRRV-NH2 [adrenorphin-derived peptide AGGFMRRV] belongs above 10 µM.
In test [2], YAGFMRRV-NH2 [adrenorphin-derived peptide YAGFMRRV] showed a Supplementary Table 4: EC50 of β-arrestin-1 recruitment to DOR, U87 cells of 2.32 µM. In test [3], this molecule gave a Supplementary Table 4: EC50 of β-arrestin-1 recruitment to MOR, U87 cells of 1.09 µM. The molecule also returned a Supplementary Table 4: EC50 of β-arrestin-1 recruitment to ACKR3, U87 cells in test [1] of 0.611 µM.
YGGFMRRA-NH2 [adrenorphin-derived peptide YGGFMRRA] showed a Supplementary Table 4: EC50 of β-arrestin-1 recruitment to DOR, U87 cells in test [2] of 0.26 µM. Besides, the Supplementary Table 4: EC50 of β-arrestin-1 recruitment to MOR, U87 cells in test [3] was 0.265 µM. Further, the Supplementary Table 4: EC50 of β-arrestin-1 recruitment to ACKR3, U87 cells in test [1] was 0.201 µM. For the same molecule, the Supplementary Table 4: EC50 of β-arrestin-1 recruitment to KOR, U87 cells in test [4] is 0.132 µM.
With YGGFNRRV-NH2 [adrenorphin-derived peptide YGGFNRRV], in test [1], the Supplementary Table 4: EC50 of β-arrestin-1 recruitment to ACKR3, U87 cells worked out at 10 µM. In test [4], this molecule showed a Supplementary Table 4: EC50 of β-arrestin-1 recruitment to KOR, U87 cells of 0.508 µM.
In test [1], YGGFKRRV-NH2 [adrenorphin-derived peptide YGGFKRRV] returned a Supplementary Table 4: EC50 of β-arrestin-1 recruitment to ACKR3, U87 cells of 10 µM.
In the case of GGFMRRV-NH2 [adrenorphin-derived peptide - GGFMRRV], in test [1], the Supplementary Table 4: EC50 of β-arrestin-1 recruitment to ACKR3, U87 cells was above 10 µM.
On to YGGFMRKV-NH2 [adrenorphin-derived peptide YGGFMRKV], for which, in test [2], the Supplementary Table 4: EC50 of β-arrestin-1 recruitment to DOR, U87 cells came out at 0.378 µM. The molecule further had a Supplementary Table 4: EC50 of β-arrestin-1 recruitment to MOR, U87 cells in test [3] of 0.786 µM. For the same molecule, in test [1], the Supplementary Table 4: EC50 of β-arrestin-1 recruitment to ACKR3, U87 cells amounted to 10 µM. Besides, the Supplementary Table 4: EC50 of β-arrestin-1 recruitment to KOR, U87 cells in test [4] is 0.23 µM.
On to YGGFMRRI-NH2 [adrenorphin-derived peptide YGGFMRRI], for which, in test [2], the Supplementary Table 4: EC50 of β-arrestin-1 recruitment to DOR, U87 cells was determined as 0.32 µM. The molecule further registered a Supplementary Table 4: EC50 of β-arrestin-1 recruitment to MOR, U87 cells in test [3] of 0.188 µM. In test [1], this molecule showed a Supplementary Table 4: EC50 of β-arrestin-1 recruitment to ACKR3, U87 cells of 0.115 µM. In addition, the Supplementary Table 4: EC50 of β-arrestin-1 recruitment to KOR, U87 cells in test [4] was 0.0769 µM.
